{
  "source": "paper PMC10397247",
  "binders": {"B1": {"name": "4H1348-bA (peptide)", "chain": "DENAQLEQKIAELKQEIAELEWENAQLKQ"}, "B2": {"name": "O1-AA (peptide)", "chain": "DKNAALKAENAALEAEIAALEAEIAALEG"}},
  "key": {"4H591-bA": {"biological_target": "T1, 4H591-bA", "T1 chain": "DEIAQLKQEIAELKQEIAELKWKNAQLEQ", "assay": "two-hybrid library CCNG1;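 note: natural log of median RNA to DNA barcode read ratio; higher means stronger binding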"}, "4H3497-bA": {"biological_target": "T2, 4H3497-bA", "T2 chain": "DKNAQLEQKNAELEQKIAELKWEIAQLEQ", "assay": "two-hybrid library CCNG1"}, "4H906-bA": {"biological_target": "T3, 4H906-bA", "T3 chain": "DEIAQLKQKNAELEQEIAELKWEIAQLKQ", "assay": "two-hybrid library CCNG1"}, "4H3298-bA": {"biological_target": "T4, 4H3298-bA", "T4 chain": "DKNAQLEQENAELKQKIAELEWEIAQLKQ", "assay": "two-hybrid library CCNG1"}, "4H3277-bA": {"biological_target": "T5, 4H3277-bA", "T5 chain": "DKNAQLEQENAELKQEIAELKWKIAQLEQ", "assay": "two-hybrid library CCNG1"}, "4H3628-bA": {"biological_target": "T6, 4H3628-bA", "T6 chain": "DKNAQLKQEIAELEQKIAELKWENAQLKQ", "assay": "two-hybrid library CCNG1"}, "4H1449-bA": {"biological_target": "T7, 4H1449-bA", "T7 chain": "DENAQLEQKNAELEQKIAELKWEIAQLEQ", "assay": "two-hybrid library CCNG1"}, "4H3858-bA": {"biological_target": "T8, 4H3858-bA", "T8 chain": "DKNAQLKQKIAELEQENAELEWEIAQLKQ", "assay": "two-hybrid library CCNG1"}, "4H3926-bA": {"biological_target": "T9, 4H3926-bA", "T9 chain": "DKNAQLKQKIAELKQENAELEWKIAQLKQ", "assay": "two-hybrid library CCNG1"}, "4H3162-bA": {"biological_target": "T10, 4H3162-bA", "T10 chain": "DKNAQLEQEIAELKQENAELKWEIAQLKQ", "assay": "two-hybrid library CCNG1"}, "4H3638-bA": {"biological_target": "T11, 4H3638-bA", "T11 chain": "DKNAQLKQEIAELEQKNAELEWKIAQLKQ", "assay": "two-hybrid library CCNG1"}, "4H1985-bA": {"biological_target": "T12, 4H1985-bA", "T12 chain": "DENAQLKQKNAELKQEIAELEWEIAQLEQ", "assay": "two-hybrid library CCNG1"}, "4H1544-bA": {"biological_target": "T13, 4H1544-bA", "T13 chain": "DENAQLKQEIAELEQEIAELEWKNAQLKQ", "assay": "two-hybrid library CCNG1"}, "4H626-bA": {"biological_target": "T14, 4H626-bA", "T14 chain": "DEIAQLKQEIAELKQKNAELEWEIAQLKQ", "assay": "two-hybrid library CCNG1"}, "4H338-bH": {"biological_target": "T15, 4H338-bH", "T15 chain": "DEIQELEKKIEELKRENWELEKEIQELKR", "assay": "two-hybrid library CCNG1"}, "4H1899-bA": {"biological_target": "T16, 4H1899-bA", "T16 chain": "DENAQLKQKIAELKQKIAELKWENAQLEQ", "assay": "two-hybrid library CCNG1"}, "4H3974-bA": {"biological_target": "T17, 4H3974-bA", "T17 chain": "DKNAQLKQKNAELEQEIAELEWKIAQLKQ", "assay": "two-hybrid library CCNG1"}, "4H3175-bA": {"biological_target": "T18, 4H3175-bA", "T18 chain": "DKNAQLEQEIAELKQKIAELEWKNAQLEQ", "assay": "two-hybrid library CCNG1"}, "4H850-bA": {"biological_target": "T19, 4H850-bA", "T19 chain": "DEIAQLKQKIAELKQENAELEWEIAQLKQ", "assay": "two-hybrid library CCNG1"}, "4H570-bA": {"biological_target": "T20, 4H570-bA", "T20 chain": "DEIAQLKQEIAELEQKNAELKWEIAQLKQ", "assay": "two-hybrid library CCNG1"}, "4H3462-bA": {"biological_target": "T21, 4H3462-bA", "T21 chain": "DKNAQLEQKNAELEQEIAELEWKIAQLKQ", "assay": "two-hybrid library CCNG1"}, "4H3817-bA": {"biological_target": "T22, 4H3817-bA", "T22 chain": "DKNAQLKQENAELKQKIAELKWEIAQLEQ", "assay": "two-hybrid library CCNG1"}, "4H1373-bA": {"biological_target": "T23, 4H1373-bA", "T23 chain": "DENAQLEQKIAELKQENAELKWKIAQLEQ", "assay": "two-hybrid library CCNG1"}, "4H3613-bA": {"biological_target": "T24, 4H3613-bA", "T24 chain": "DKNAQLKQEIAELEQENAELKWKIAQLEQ", "assay": "two-hybrid library CCNG1"}, "4H1710-bA": {"biological_target": "T25, 4H1710-bA", "T25 chain": "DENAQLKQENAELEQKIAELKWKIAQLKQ", "assay": "two-hybrid library CCNG1"}, "4H1348-bA": {"biological_target": "T26, 4H1348-bA", "T26 chain": "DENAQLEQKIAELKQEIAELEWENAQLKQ", "assay": "two-hybrid library CCNG1"}, "O13-AA": {"biological_target": "T27, O13-AA", "T27 chain": "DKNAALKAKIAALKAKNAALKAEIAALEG", "assay": "two-hybrid library CCmax", "settings": "mean of both orientations"}, "O2-AA": {"biological_target": "T28, O2-AA", "T28 chain": "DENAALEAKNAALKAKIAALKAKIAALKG", "assay": "two-hybrid library CCmax", "settings": "mean of both orientations"}, "O6-AA": {"biological_target": "T29, O6-AA", "T29 chain": "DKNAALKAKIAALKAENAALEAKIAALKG", "assay": "two-hybrid library CCmax", "settings": "mean of both orientations"}, "O3-AA": {"biological_target": "T30, O3-AA", "T30 chain": "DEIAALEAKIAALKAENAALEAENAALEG", "assay": "two-hybrid library CCmax", "settings": "mean of both orientations"}, "P10-AA": {"biological_target": "T31, P10-AA", "T31 chain": "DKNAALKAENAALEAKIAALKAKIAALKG", "assay": "two-hybrid library CCmax", "settings": "mean of both orientations"}, "O11-AA": {"biological_target": "T32, O11-AA", "T32 chain": "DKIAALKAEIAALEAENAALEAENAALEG", "assay": "two-hybrid library CCmax"}, "O1-AA": {"biological_target": "T33, O1-AA", "T33 chain": "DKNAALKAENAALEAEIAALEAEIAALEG", "assay": "two-hybrid library CCmax"}, "O4-AA": {"biological_target": "T34, O4-AA", "T34 chain": "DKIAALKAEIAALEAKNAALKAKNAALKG", "assay": "two-hybrid library CCmax", "settings": "mean of both orientations"}, "O5-AA": {"biological_target": "T35, O5-AA", "T35 chain": "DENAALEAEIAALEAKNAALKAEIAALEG", "assay": "two-hybrid library CCmax"}, "O14-AA": {"biological_target": "T36, O14-AA", "T36 chain": "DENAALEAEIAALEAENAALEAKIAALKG", "assay": "two-hybrid library CCmax", "settings": "mean of both orientations"}, "O7-AA": {"biological_target": "T37, O7-AA", "T37 chain": "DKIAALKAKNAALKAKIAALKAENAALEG", "assay": "two-hybrid library CCmax", "settings": "mean of both orientations"}, "O8-AA": {"biological_target": "T38, O8-AA", "T38 chain": "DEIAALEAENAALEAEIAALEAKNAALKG", "assay": "two-hybrid library CCmax", "settings": "mean of both orientations"}, "P9-AA": {"biological_target": "T39, P9-AA", "T39 chain": "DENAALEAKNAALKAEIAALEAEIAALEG", "assay": "two-hybrid library CCmax", "settings": "mean of both orientations"}},
  "data": [
    {"binder": "B1", "values": [
      {"measurement": "interaction score", "setting": "4H591-bA", "value": -1.02},
      {"measurement": "interaction score", "setting": "4H3497-bA", "value": -0.616},
      {"measurement": "interaction score", "setting": "4H906-bA", "value": -0.721},
      {"measurement": "interaction score", "setting": "4H3298-bA", "value": -0.624},
      {"measurement": "interaction score", "setting": "4H3277-bA", "value": -0.24},
      {"measurement": "interaction score", "setting": "4H3628-bA", "value": 1.84},
      {"measurement": "interaction score", "setting": "4H1449-bA", "value": -0.151},
      {"measurement": "interaction score", "setting": "4H3858-bA", "value": -0.895},
      {"measurement": "interaction score", "setting": "4H3926-bA", "value": -0.392},
      {"measurement": "interaction score", "setting": "4H3162-bA", "value": -0.332},
      {"measurement": "interaction score", "setting": "4H3638-bA", "value": -0.0281},
      {"measurement": "interaction score", "setting": "4H1985-bA", "value": -0.366},
      {"measurement": "interaction score", "setting": "4H1544-bA", "value": -0.0997},
      {"measurement": "interaction score", "setting": "4H626-bA", "value": -0.434},
      {"measurement": "interaction score", "setting": "4H338-bH", "value": 1.22},
      {"measurement": "interaction score", "setting": "4H1899-bA", "value": 1.63},
      {"measurement": "interaction score", "setting": "4H3974-bA", "value": 0.469},
      {"measurement": "interaction score", "setting": "4H3175-bA", "value": 0.0318},
      {"measurement": "interaction score", "setting": "4H850-bA", "value": -0.292},
      {"measurement": "interaction score", "setting": "4H570-bA", "value": -0.301},
      {"measurement": "interaction score", "setting": "4H3462-bA", "value": 0.657},
      {"measurement": "interaction score", "setting": "4H3817-bA", "value": -0.318},
      {"measurement": "interaction score", "setting": "4H1373-bA", "value": -0.7},
      {"measurement": "interaction score", "setting": "4H3613-bA", "value": -1.05},
      {"measurement": "interaction score", "setting": "4H1710-bA", "value": 0.798},
      {"measurement": "interaction score", "setting": "4H1348-bA", "value": 0.78}
    ]},
    {"binder": "B2", "values": [
      {"measurement": "interaction score", "setting": "O13-AA", "value": 0.0154},
      {"measurement": "interaction score", "setting": "O2-AA", "value": 2.13},
      {"measurement": "interaction score", "setting": "O6-AA", "value": -1.79},
      {"measurement": "interaction score", "setting": "O3-AA", "value": -1.57},
      {"measurement": "interaction score", "setting": "P10-AA", "value": 1.05},
      {"measurement": "interaction score", "setting": "O11-AA", "value": -1.61},
      {"measurement": "interaction score", "setting": "O1-AA", "value": -2.06},
      {"measurement": "interaction score", "setting": "O4-AA", "value": -1.07},
      {"measurement": "interaction score", "setting": "O5-AA", "value": -1.72},
      {"measurement": "interaction score", "setting": "O14-AA", "value": -1.66},
      {"measurement": "interaction score", "setting": "O7-AA", "value": -0.639},
      {"measurement": "interaction score", "setting": "O8-AA", "value": -1.41},
      {"measurement": "interaction score", "setting": "P9-AA", "value": -0.278}
    ]}
  ]
}
